In one experiment the test system is Jurkat. Nature of the experiment: In vitro cytotoxicity, CELLTITER-GLO, 96 hours (BCMA-negative line). It is filed as cell-based. Particulars: T-lymphocyte, BCMA receptor number 0. The procedure: (§1) Killing of multiple myeloma and plasma cell leukemia cell lines by antibody-drug conjugates comprising 15B2GL, or affinity-optimized clones thereof, conjugated to SG3249 was evaluated in vitro using the protocol recommended in the CELLTITER-GLO® kit (Promega, Madison, Wis.). Killing of multiple myeloma and plasma cell leukemia cell lines by the free warhead SG3199 also was evaluated using the protocol recommended in the CELLTITER-GLO® kit (Promega, Madison, Wis.). Briefly, 5×10^3 cells in 80 μL RPMI+10% FBS were added to the inner wells of white-walled 96-well plates (Corning® Costar®, Fisher Scientific, Waltham, Mass.). The following BCMA-expressing cell lines were tested: NCI-H929, EJM, MM.1R. JJN3, OPM-2, MM.1S, U266.B1, and L363. BMCA-negative cell lines Raji and Jurkat also were tested. The antibody-drug conjugates were diluted to a 5× stock (2.5 μg/mL) in RPMI+10% FBS. Treatments were then serially diluted 1:3 in RPMI+10% FBS. […] Luminescence was measured using an EnVision™ Multilabel plate reader (Perkin Elmer, Waltham, Mass.). Data were analyzed and graphed using GraphPad Prism™ software (GraphPad Software, Inc., La Jolla, Calif.), and the half-maximal inhibitory concentration (IC50) was determined.

The next experiment concerns Raji. The description is as above. It is filed as cell-based. Particulars: Burkitt's lymphoma, BCMA receptor number 0. The protocol:
as §1

The test system of another experiment is MM.1S xenograft. The experiment in a line: MM.1S subcutaneous xenograft model (Example 5). The class given is in vivo, mouse. Particulars: single intravenous dose 1 mg/kg, observed for 99 days post tumor implantation. The source says: (§2) Subcutaneous xenograft mouse models of multiple myeloma and plasma cell leukemia were generated by implanting BCMA-expressing multiple myeloma or plasma cell leukemia cell lines (i.e., NCI-H929, JJN-3, MM.1S, and MM.1R) into female CB-17 SCID (C.B-17/IcrHsd-Prkdc-scid) or athymic nude (Foxn1^nu) mice using MATRIGEL™ (BD Biosciences, San Jose, Calif.). Once tumors reached approximately 180 mm^3 (NCI-H929 cells), 190 mm^3 (JJN3 cells), 160 mm^3 (MM.1S cells), or 175 mm^3 (MM.1R cells), mice were randomized based on tumor size and placed into dosing groups and treated with BCMA-targeting ADCs as described below.
Mice were treated with either a single intravenous dose of 15B2GL-SG3249, 109-SG3249, L15-SG3249 ADCs at 1 mg/kg or dosed intravenously with J6M0-mc-MMAF twice weekly at a dose of 1 mg/kg for 4 weeks. Control mice were left untreated.

The subject of a further experiment is MM.1R xenograft. The experiment in a line: MM.1R subcutaneous xenograft model. The class given is in vivo, mouse. As to conditions: single intravenous dose 1 mg/kg, observed for 109 days post tumor implantation.
Source text: as §2
Mice were treated with either a single intravenous dose of 15B2GL-SG3249 at 1 mg/kg or dosed intravenously with J6M0-mc-MMAF weekly at a dose of 3 mg/kg for 4 weeks. Control mice were left untreated.

The next experiment has as its system JJN3 xenograft. Nature of the experiment: JJN3 subcutaneous xenograft model. It is filed as in vivo, mouse. Particulars: single intravenous dose 1 mg/kg, observed for 104 days post tumor implantation.
Source text: as §2
Mice were treated with either a single intravenous dose of 15B2GL-SG3249, 109-SG3249, and L15-SG3249 ADCs at 1 mg/kg, or dosed intravenously with J6M0-mc-MMAF ADC weekly at a dose of 1 mg/kg for 3 weeks. Control mice were left untreated.

The next experiment relates to MM.1S cells. Nature of the experiment: Cell killing in the presence of soluble BCMA (conditioned media from Ad293 cells expressing human BCMA). It is filed as cell-based. Particulars: MM.1S and NCI-H929, sBCMA at levels up to 720 ng/mL. The protocol: Killing of multiple myeloma and plasma cell leukemia cell lines by antibody-drug conjugates comprising 15B2GL, or affinity-optimized clones thereof, conjugated to SG3249 was evaluated in vitro using the protocol recommended in the CELLTITER-GLO® kit (Promega, Madison, Wis.). Killing of multiple myeloma and plasma cell leukemia cell lines by the free warhead SG3199 also was evaluated using the protocol recommended in the CELLTITER-GLO® kit (Promega, Madison, Wis.). Briefly, 5×10^3 cells in 80 μL RPMI+10% FBS were added to the inner wells of white-walled 96-well plates (Corning® Costar®, Fisher Scientific, Waltham, Mass.). The following BCMA-expressing cell lines were tested: NCI-H929, EJM, MM.1R. JJN3, OPM-2, MM.1S, U266.B1, and L363. BMCA-negative cell lines Raji and Jurkat also were tested. The antibody-drug conjugates were diluted to a 5× stock (2.5 μg/mL) in RPMI+10% FBS. Treatments were then serially diluted 1:3 in RPMI+10% FBS. 20 μL of this series was added to the cells in duplicate, resulting in a 12-point dose curve of antibody-drug conjugate ranging from 0.5 μg/mL at the highest concentration to 3×10^−[…] at the lowest. Isotype antibody-drug conjugate (IgG1-SG3249 and IgG1-mc-MMAF) and media-only controls also were included. Plates were incubated at 37° C., 5% CO2 for 96 hours. At the end of the incubation period, 100 μL of the Substrate Solution (Promega, Madison Wis.) was added to each well. Luminescence was measured using an EnVision™ Multilabel plate reader (Perkin Elmer, Waltham, Mass.). Data were analyzed and graphed using GraphPad Prism™ software (GraphPad Software, Inc., La Jolla, Calif.), and the half-maximal inhibitory concentration (IC50) was determined.
The ability of the 15B2GL-SG3249 ADC to kill multiple myeloma cells in vitro in the presence of soluble BCMA (sBCMA) as compared to the I09-5G3249 ADC was evaluated in MM.1S cells using the protocol described above, except that tested cell lines also were treated with BCMA-containing conditioned media collected from Ad293 cells expressing human BCMA (FIGS. 3A and 3B). 15B2GL-SG3249 ADC cell killing in the presence of sBCMA also was compared to ADCs comprising the anti-BCMA antibody J6M0, which is described in U.S. Pat. No. 9,273,141.

Experiment [1] relates to MM stem cells (clonogenic cells in MM bone marrow biopsies). The experiment in a line: Clonogenic (colony formation) assay on MM patient bone marrow samples. The class given is cell-based, human. The procedure:
In particular, cells were counted using a ViCELL™ counter (Beckmann-Coulter Life Sciences, Indianapolis, Ind.) and resuspended in IMDM+2% FBS at 10-fold higher density than required for plating. METHOCULT™ H4434 Classic (StemCell Technologies, Inc., Vancouver, BC, Canada) was mixed with 2000 cells per mL for MM263, MM284, and MM276, and 4000 cells per mL for MM277 following the manufacturer's instructions. 25-400 ng per mL of the test ADCs 15B2GL-SG3249 and J6M0-mc-MMAF was then added to appropriate tubes. A control IgG1-SG3249 antibody was added at only the high dose of 400 ng per mL. All tubes were vortexed thoroughly to mix and then allowed to sit undisturbed, allowing air bubbles to rise to the top. Once the bubbles had risen, 400 μL was removed with a 16-guage blunt end needle and carefully plated into one well of a 24-well ultralow attachment plate (VWR, Radnor, Pa.). Each treatment was plated in duplicate in the inner wells of the plate. PBS was added to the outer wells and the plate was incubated at 37° C. for 7-10 days. Colonies were counted by eye with documentation of colony formation by scanning plates on a Celigo® Image Cytometer (Nexcelom Biosciences, Lawrence, Mass.).

For a further experiment, the system named is NCI-H929 xenograft. Nature of the experiment: NCI-H929 subcutaneous xenograft model (Example 5). It is filed as in vivo, mouse. Particulars: single intravenous dose 0.3 mg/kg, observed for 99 days post tumor implantation.
Source text: as §2
Mice were treated with either a single intravenous dose of the ADCs 15B2GL-SG3249, I09-5G3249, L15-SG3249 at 0.3 mg/kg or dosed intravenously with J6M0-mc-MMAF weekly at a dose of 0.3 mg/kg for 2 weeks. Control mice were left untreated.

B1: 15B2GL-SG3249: ADC: 15B2GL monoclonal antibody site-specifically conjugated to the PBD payload SG3249 (conjugate)
VH: EVQLVESGGGLVKPGGSLRLSCAASGFTFRSYSMNWVRQAPGKGLEWVSSISGSSNYIYYADSVKGRFTISRDNAKNSLYLQMNSLRAEDTAVYYCARGGNYYVEYFQYWGQGTLVTVSS
VL: EIVLTQSPGTLSLSPGERATLSCRASQYISSNYLAWYQQKPGQAPRLLIYGASNRATGIPDRFSGSGSGTDFTLTISRLEPEDFAVYYCQQYGSSPITFGQGTKLEIK
Regarding B1, the IC50 in the experiment on Jurkat and in the experiment with Raji was more than 0.5 µg/mL each time. Moreover, the tumor regrowth entry with MM.1S xenograft, in the experiment with MM.1R xenograft, in the experiment with JJN3 xenograft and in the experiment on NCI-H929 xenograft was “no evidence of tumor regrowth” in each case. The “tumor cells killed (average)” value in the experiment with MM.1S cells is 95%. The “colonies killed / reduction in colony formation” value stood at 100% in experiment [1] (patient sample MM263, 400 ng/mL); 87.5% in experiment [1] (patient sample MM276, 400 ng/mL); 91% in experiment [1] (patient sample MM277, 400 ng/mL); 100% in experiment [1] (patient sample MM284, 400 ng/mL).

In general, IC50 refers to the midpoint of a concentration-inhibition curve. A lower IC50 goes with higher potency.

The values above are taken from patent US11912782B2, “BCMA monoclonal antibody-drug conjugate” (MedImmune, LLC, priority 2017, dated 2024).
